In the RNAGym collection of RNA variant scans (doi:10.1093/molbev/msab373):

B1: Azoarcus group I ribozyme (parent)
chain: GUGCCUUGCGCCGGGAAACCACGCAAGGGAUGGUGUCAAAUUCGGCGAAACCUAAGCGCCCGCCCGGGCGUAUGGCAACGCCGAGCCAAGCUUCGGCGCCUGCGCCGAUGAAGGUGUAGAGACUAGACGGCACCCACCUAAGGCAAACGCUAUGGUGAAGGCAUAGUCCAGGGAGUGGCGAAAGUCACACAAACCGG

Variants of: B1
Test: reverse-splicing fitness (ratio to wild type); higher = more active; in vitro selection; Mg2+ level not given
How it was run: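 An in vitro group I ribozyme library with randomized positions was T7-transcribed and gel-purified. In triplicate, 10 pmol RNA in EPPS pH 7.5 was reacted with 50 pmoles of a 30-nt RNA substrate for 1 h at 37 °C across several added MgCl2 levels (1–48 mM), then stopped with EDTA. Products were reverse transcribed from a substrate-complementary primer, PCR-amplified and sequenced (HiSeq 4000). Fitness is a variant's read proportion after selection over that before, normalised to wild type.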

Row | Variant | reverse-splicing fitness
1 | C82A A111C C150A C169G U176G | 0.00951
2 | C82A A111C C150A C169G U176A | 0.0151
3 | C82A A111C C169A U176A | 0.0171
4 | C82A A111C C169A U176G | 0.00874
5 | C82A A111C C169A U176C | 0.0237
6 | C82A A111G A120C A145G C150U U176G | 0.00916
7 | C82A A111G A120C A145G C150U U176C | 0.0258
8 | C82A A111G A120C A145G C150U U176A | 0.0156
9 | C82A A111G A120C A145C C150U U176G | 0.00644
10 | C82A A111G A120C A145C C150U U176A | 0.0118
11 | C82A A111G A120C A145C C150U U176C | 0.018
12 | C82A A111G A120C A145U C150G U176C | 0.00993
13 | C82A A111G A120C A145U C150G U176A | 0.00605
14 | C82A A111G A120C A145U C150G U176G | 0.00395
15 | C82A A111G A120C A145G C150U C169A U176C | 0.0172
16 | C82A A111G A120C A145G C150U C169A U176G | 0.00816
17 | C82A A111G A120C A145G C150U C169A U176A | 0.0194
18 | C82A A111G A120C A145U C150G C169A U176G | 0.00597
19 | C82A A111G A120C A145U C150G C169A U176C | 0.0114
20 | C82A A111G A120C A145U C150G C169A U176A | 0.011
21 | C82A A111G A120C A145G C169A U176C | 0.0269

Row | Variant | reverse-splicing fitness
22 | C82A A111G A120C A145G C169A U176G | 0.00562
23 | C82A A111G A120C A145G C169A U176A | 0.0226
24 | C82A A111G A120C A145G C150G U176A | 0.00873
25 | C82A A111G A120C A145G C150G U176C | 0.0121
26 | C82A A111G A120C A145G C150G U176G | 0.00593
27 | C82A A111G A120C A145C C169A U176G | 0.0053
28 | C82A A111G A120C A145C C169A U176A | 0.0162
29 | C82A A111G A120C A145C C169A U176C | 0.0109
30 | C82A A111C A145G C150G U176C | 0.0173
31 | C82A A111C A145G C150G U176G | 0.00607
32 | C82A A111C A145U C169U U176C | 0.0144
33 | C82A A111C A145U C169U U176A | 0.0149
34 | C82A A111C A145U C169U U176G | 0.00718
35 | C82A A111G A120C A145U C150A C169G U176G | 0.00642
36 | C82A A111G A120C A145U C150A C169G U176C | 0.0245
37 | C82A A111G A120C A145U C150A C169G U176A | 0.0188
38 | C82A A111G A120C A145C C150U C169A | 0.00838
39 | C82A A111G A120C A145C C150U C169G | 0.00854
40 | C82A A111G A120C A145C C150U C169U | 0.0104
41 | C82A A111C C150U U176G | 0.0134
42 | C82A A111C C150U U176A | 0.036

Row | Variant | reverse-splicing fitness
43 | C82A A111C C150U U176C | 0.0554
44 | C82A A111G A120C A145C U176C | 0.024
45 | C82A A111G A120C A145C U176A | 0.0165
46 | C82A A111G A120C A145C U176G | 0.00728
47 | C82A A111G A120C A145C C150A C169A U176G | 0.00558
48 | C82A A111G A120C A145C C150A C169A U176A | 0.0178
49 | C82A A111G A120C A145C C150A C169A U176C | 0.0105
50 | C82A A111C A145U C169A U176C | 0.0156
51 | C82A A111C A145U C169A U176G | 0.0095
52 | C82A A111C A145U C169A U176A | 0.0138
53 | C82A A111C A145G C150U | 0.174
54 | C82A A111C C150A C169A | 0.00979
55 | C82A A111C C150A C169U | 0.0131
56 | C82A A111C C150A C169G | 0.00835
57 | C82A A111G A120C A145U | 0.0424
58 | C82A A111G A120C A145G | 0.0444
59 | C82A A111G A120C A145C | 0.0362
60 | C82A A111C C150G C169G U176G | 0.00585
61 | C82A A111C C150G C169G U176A | 0.00718
62 | C82A A111C C150G C169G U176C | 0.00508
63 | C82A A111C C150A C169A U176A | 0.0188

Row | Variant | reverse-splicing fitness
64 | C82A A111C C150A C169A U176C | 0.0237
65 | C82A A111C C150A C169A U176G | 0.00857
66 | C82A A111G A120C A145G C150A U176A | 0.0133
67 | C82A A111G A120C A145G C150A U176C | 0.0253
68 | C82A A111G A120C A145G C150A U176G | 0.0103
69 | C82A A111G A120C A145G C150A C169A | 0.0119
70 | C82A A111G A120C A145G C150A C169U | 0.00999
71 | C82A A111G A120C A145G C150A C169G | 0.00915
72 | C82A A111G A120C A145C C169G U176C | 0.0238
73 | C82A A111G A120C A145C C169G U176G | 0.00569
74 | C82A A111G A120C A145C C169G U176A | 0.0285
75 | C82A A111C C150U C169U U176G | 0.00804
76 | C82A A111C C150U C169U U176A | 0.0165
77 | C82A A111C C150U C169U U176C | 0.0147
78 | C82A A111G A120C A145U C150G C169G | 0.0075
79 | C82A A111G A120C A145U C150G C169A | 0.00895
80 | C82A A111G A120C A145U C150G C169U | 0.00884
81 | C82A A111C A145U C169G U176G | 0.00756
82 | C82A A111C A145U C169G U176A | 0.0124
83 | C82A A111C A145U C169G U176C | 0.0193
